± gives the uncertainty stated by the source.
Experiment: amyloid nucleation score (Sup35N fusion, yeast selection) (log enrichment); library NNK3; higher = more nucleation; inactive = no reads after selection
Method in brief: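 The nucleation score equals the log enrichment of output over input reads from DiMSum, centred on the mode score of non-aggregating sequences. It was computed only for sequences with 100 or more input reads. The reads came from Illumina sequencing of plasmid inserts from psi-negative yeast expressing Sup35N fused to peptides of 20 random codons, induced with 100 μM copper sulfate for 24 hours and grown 7 days at 30°C without adenine and uracil.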

Substance	amyloid nucleation score
STYDRVKNLYVRRSAVVLPS	inactive
STYLMSFVLYWLWQRSLDTC	inactive
SVAGRCVSWNQRGKGLRNAR	inactive
SVASRTSEGTGYSCIIRVFH	inactive
SVDDFR	inactive
SVDVTFSVYHY	0.702 ± 0.19
SVERCVIRFCYLQGLYMAAF	inactive
SVERVLLRTVASVGGDVDVN	inactive
SVFDKGESGRRYGGEV	inactive
SVFPSLFNACSDLNSVHKVV	inactive
SVGKWMYRPSEYGACCASGY	inactive
SVIGTSTSFCLHWLWGWALC	inactive
SVLFSLYSSLSYV	0.548 ± 0.2
SVLLISVEYVAYEFLSHSVR	2.05 ± 0.097
SVNSVHLMRSSEVGTHEGVG	inactive
SVPDTLSDFISCPVNCTFLN	inactive
SVRGIKVNLWRKEDLYASTQ	inactive
SVSEFSFGSKCIVRRLGI	inactive
SVSRFKWGFKQAQWDKQRRY	inactive
SVSYFWFARL	-0.005 ± 0.98
SVTLGWSTRCCF	1.27 ± 0.096
SVVLRYVLRYNRSACESRRR	0.441 ± 0.21
SVWFGEIRNMGLIEEENRDW	inactive
SVWMGVEPGHYLYQRVLGLV	inactive

Substance	amyloid nucleation score
SVYDCQLVACHLMRDHKK	inactive
SVYGSVFKNRG	inactive
SVYQDCTGGNIPQFGSLAD	inactive
SWAVRMAGEYFRNSDMMWCA	inactive
SWCVDTSIQFPKAFNIVCGF	inactive
SWKGGLQTDDGSKGS	inactive
SWLNKIAKVIST	inactive
SWMSI	inactive
SWRHSCNTRSNDYNIDWE	inactive
SWRPAICPLLVMKL	inactive
SWSRYNDC	inactive
SWVCCF	inactive
SWVFFD	inactive
SWWKDLVYD	inactive
SWYDVRSVPKSMVAMMGWRL	inactive
SWYEYCLINSLRKGSGYKEP	inactive
SYCDVFTGNNLHLVVSFFYS	2.7 ± 0.053
SYCYSIAMLAMIFLLMQCVI	-0.011 ± 0.43
SYDVNTDFVLCDYSRDTGSQ	inactive
SYGGYQFLYVNSDKLRV	inactive
SYGLTHMSKAIGDHRVVIAT	inactive
SYILRLSHFITVGLFWAEMQ	inactive
SYLVRCVARNLLCFERVRGS	inactive
SYNCA	inactive

Substance	amyloid nucleation score
SYNHEKLK	inactive
SYNKEKVSKTFVGCPTRSMV	inactive
SYNVFPIAEDKNHWNTFC	inactive
SYSLPMQKRCCIGIGEAGWN	-0.354 ± 0.82
SYSNDHAFVSRVAGCNIC	1.53 ± 0.1
SYSSIVCLGIDYRQAFWCIR	1.8 ± 0.077
SYSVIMNHMKRWNPGDTSKW	inactive
SYTSFSHSPCTVLMKTWPPK	inactive
SYWPVRSELQSVLLNSCGVR	inactive
SYYPRIRRLGWECSWTPMLQ	inactive
SYYSRIRLLRRVRVSYYYVR	0.801 ± 0.22
SYYTISLRMSFTTYFCLKMS	0.665 ± 0.13
TACVFPLMFTTVPGFFFVVE	inactive
TAFYSRYFWVNLICRRPSFK	inactive
TAPFVYLLWRGKCSKAHSRY	inactive
TARDESSGV	inactive
TAVVKW	inactive
TCAPMTITFSCHNNLFKC	2.65 ± 0.058
TCECCLMMVEFRALCHRWEL	inactive
TCLEVYGSDMFRTKIRNHDK	inactive
TCNNMYCWV	2.3 ± 0.075
TCSYNSGKYNFE	inactive
TCTLEFLNY	inactive
TDHAWFWEQS	inactive

Substance	amyloid nucleation score
TDIAPLAGGITSSDNIVRTK	inactive
TDKRSGVKLNLYFITNTIFA	2.17 ± 0.06
TDSYICGNMLHKRALKSTSM	inactive
TEDHH	inactive
TEESIDVDCVILVTNCHFRC	0.804 ± 0.18
TEQNVSGCEGEGSYGYTRYA	inactive
TETASNSTRYSFL	inactive
TFCSTCGDLWGSDFKCGFRV	inactive
TFCVQYESRFRFQESESLHM	inactive
TFFIIIGYVLASGGALGLCR	inactive
TFFLYVKIRVALNIRVPGVR	inactive
TFFVLGCLINLLGMKWTGWV	inactive
TFGHWAMYVSCWDRVVCGVD	inactive
TFLCSENQAAMWGIRTGSLL	inactive
TFLRQGMNSDISYLVRFGGN	-0.057 ± 0.47
TFLWY	inactive
TFNSLVCQFIKPLHHLFATL	inactive
TFNYYACTPIKFVWYLGTCP	2.54 ± 0.072
TFQDGLLRSDWFIMTLFRRP	inactive
TFQRFQLGHIRFRQVFSWIC	-0.627 ± 1.4
TFRLAEQQSEFSDLK	-0.335 ± 0.71
TFSFILRSNLLYENRSVDRA	1.57 ± 0.077
TFSVRLSYLSRNAICDERVL	0.33 ± 0.46
TGCPWIRTVNPVVPWVCEHR	inactive

Substance	amyloid nucleation score
TGCSSF	inactive
TGKLNNFFNTFRYFYLLADY	inactive
TGLVMNKLHLMCDMYGIISL	inactive
TGPFGINLRGR	inactive
TGTSSKYVGEVLHSLVVWFA	-0.575 ± 1.5
TGVDILIPFFSPSGT	inactive
TGYWRIFSCSCLIVCVRLSV	inactive
THGIMLGFEECLGVYTFMCG	inactive
THGNMCYEWIPKVPTIISVG	inactive
THHRPWWYHSEVGVRCMNEV	0.049 ± 0.96
THLIIHCLCLFERVFITHVA	inactive
THVSSGYRYEEILWWHSRGW	inactive
TIAHYTVP	inactive
TICQADSRSSFQGLDCRRVR	-1.01 ± 2.5
TICYGD	inactive
TIESNCVDDLSIGGAGPNLR	inactive
TIFGCRSSQCSMFVLVFDFY	1.51 ± 0.12
TIFRSNDLRQYFWMA	1.63 ± 0.071
TIHIHFVGHDVCNRVVGVHH	1.24 ± 0.18
TIISCFREKIGLSRM	inactive
TKGKLLSKHLGFVRCRVHRS	inactive
